Source: patent publication US20230391867A1 (SHENZHEN ENDURING BIOTECH, published 2023)

How the values were obtained:
[1] = biological target: T1, CD47 on human cells (red blood cells from healthy human donors; BxPC3; ZR-75-1) (human, UniProt Q08722 19-323); assay: cell-based or functional assay
[2] = biological target: T2, Human CD47 Protein, Fc Tag (HPLC verified; Acro, cat:CD7-H5256-100ug) (human, UniProt Q08722 19-139); assay: ELISA, plate coated with human CD47 Fc Tag protein, anti-SCACD3 detection
T2 construct: Bought Fc-tagged CD47 coated on the ELISA plate; not shown: Fc tag
T2 sequence (Q08722 19-139 limits assumed): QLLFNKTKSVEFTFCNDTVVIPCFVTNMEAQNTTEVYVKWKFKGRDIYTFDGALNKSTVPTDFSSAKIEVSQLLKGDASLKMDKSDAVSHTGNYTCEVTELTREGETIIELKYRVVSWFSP

[3] = biological target: T1, CD47 on human cells (red blood cells …); assay: flow cytometry, JY102-Alexa Fluor 488 at 10 ug/ml, % stained BxPC3 cells against % stained RBCs
Procedure: Again, RBC cells from healthy human donors or cultured BxPC3 cells were collected and resuspended to a concentration of approximately 5×10⁶ cells/ml in ice cold PBS, 3% BSA. 100 μl of cell suspension was used for each binding reaction and incubated with indicated doses of JY102-Alexa Fluor 488 for at least 30 min at room temperature (or 4° C. for the assay in panel C) in the dark. Then cells were washed 3 times by centrifugation at 400 g for 5 min and resuspended in ice cold PBS, 3% BSA. Each sample was subjected to flow cytometry analysis.

T1 sequence (Q08722 19-323): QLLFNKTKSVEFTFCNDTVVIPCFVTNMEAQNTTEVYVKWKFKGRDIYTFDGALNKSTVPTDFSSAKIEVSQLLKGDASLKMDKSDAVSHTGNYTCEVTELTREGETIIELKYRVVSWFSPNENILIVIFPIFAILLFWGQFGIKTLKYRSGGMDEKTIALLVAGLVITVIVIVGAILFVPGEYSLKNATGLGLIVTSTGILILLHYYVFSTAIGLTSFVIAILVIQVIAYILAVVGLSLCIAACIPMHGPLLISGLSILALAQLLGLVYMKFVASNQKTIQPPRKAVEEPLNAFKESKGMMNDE

B1: JY102 (30kmPEG-(SCACD3)SCACD47) (bispecific antibody)
scFv 1: not shown
scFv 2: DIVMTQSPLSLPVTPGEPASISCRSSQSIVYSNGNTYLGWYLQKPGQSPQLLIYKVSNRFSGVPDRFSGSGSGTDFTLKISRVEAEDVGVYYCFQGSHVPYTFGQGTKLEIKGGCSGGSGGSGGSGGQVQLVQSGAEVKKPGASVKVSCKASGYTFTNYNMHWVRQAPGQRLEWMGTIYPGNDDTSYNQKFKDRVTITADTSASTAYMELSSLRSEDTAVYYCARGGYRAMDYWGQGTLVTVSS
modifications: free thiol (Cys) in the VL-VH linker is conjugated to Azide-PEG10-Maleimide; the azide is clicked to the DBCO of 30kmPEG-Lys(SCACD3)-DBCO; free thiol (Cys) genetically inserted in the VH-VL linker is conjugated to the maleimide of 30kmPEG-Lys(maleimide)-DBCO
notes: also called Compound 12; compound 12
**Q.** Which “EC50 of T cell mediated cytotoxicity (MTS assay, expanded T cells, E:T 5:1, 24 h) to ZR75-1” value [1] does the source give for B1 here?
**A.** 0.111 µg/mL

**Q.** What about the EC50 [2] of the same binder?
**A.** 0.187 µg/mL

**Q.** What about the “fold difference in binding (BxPC3 cells against RBCs)” value [3] of the same binder?
**A.** 40 fold
